Experimental data taken from patent EP2287285A2 (UAB RESEARCH FOUNDATION, dated 2011).

T1: soluble TNFRI (soluble form of human TNFR1) (human, UniProt P19438 41-201, limits assumed)
T1 construct: Provided by Amgen; an Fc part is therefore uncertain and not written; also called TNF receptor I
T1 sequence (looked up): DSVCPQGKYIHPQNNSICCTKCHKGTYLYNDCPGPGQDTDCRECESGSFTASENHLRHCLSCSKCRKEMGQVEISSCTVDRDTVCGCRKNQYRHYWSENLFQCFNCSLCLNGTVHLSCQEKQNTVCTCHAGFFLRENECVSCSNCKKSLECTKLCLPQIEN

T2: TRAIL-R3 (DcR-1)/hIgG1 fusion protein (human, UniProt O14798 26-236, limits assumed)
T2 sequence (looked up): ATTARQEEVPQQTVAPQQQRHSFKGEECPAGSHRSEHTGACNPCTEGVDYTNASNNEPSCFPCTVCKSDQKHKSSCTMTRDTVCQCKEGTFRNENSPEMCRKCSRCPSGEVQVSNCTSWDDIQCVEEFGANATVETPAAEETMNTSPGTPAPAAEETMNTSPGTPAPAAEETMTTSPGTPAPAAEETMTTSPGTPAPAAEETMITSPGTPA

T3: TRAIL-R4 (DcR-2)/hIgG1 fusion protein (human, UniProt Q9UBN6 56-211, limits assumed)
T3 sequence (looked up): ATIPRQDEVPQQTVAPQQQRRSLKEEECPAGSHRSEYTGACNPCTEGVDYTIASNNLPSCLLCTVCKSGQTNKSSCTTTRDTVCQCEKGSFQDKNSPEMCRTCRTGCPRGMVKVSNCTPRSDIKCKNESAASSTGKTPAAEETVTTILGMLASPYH

T4: CD95/hIgG1 (soluble form of human Fas) (human, UniProt P25445 26-173, limits assumed)
T4 construct: Provided by Amgen; also called Fas (CD95)
T4 sequence (looked up): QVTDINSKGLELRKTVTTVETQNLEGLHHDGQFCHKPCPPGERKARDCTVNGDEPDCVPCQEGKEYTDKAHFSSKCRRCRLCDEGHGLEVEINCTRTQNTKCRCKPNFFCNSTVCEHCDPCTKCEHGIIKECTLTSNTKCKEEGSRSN


Columns and labels:
[1] = target: T5, DR4/hIgG1 (TRAIL-R1) fusion protein (human, UniProt O00220 24-239, limits assumed); assay: ELISA on plates coated with 2 µg/ml DR4-Ig, HRP anti-Flag detection
T5 construct: also called DR4-Ig

[2] = target: T6, human DR5, full length, on the cell surface (Cos-7 cells transfected with full-length human DR5 cDNA); human … (human, UniProt O14763 56-440); assay: radioisotope labeled TRA-8 on a breast cancer cell line in vitro
T6 construct: whole, on cells; also called cell surface DR5; human DR5 antigen

[3] = target: T7, murine DR5/hIgG1 fusion protein (murine; human, UniProt Q9QZM4 53-180, limits assumed); assay: ELISA, absorbance 450 nm/650 nm (Fig. 1a, column 8 of lower panel)
T7 construct: also called murine homologue of DR5

[4] = target: T8, human DR5/hIgG1 fusion protein (immunogen); residues 1-180 of the extracellular portion of DR5 fused to the … (human, UniProt O14763 56-180); assay: ELISA on coated DR5-Ig, one-site binding model, non-linear regression
T8 construct: range 1-180; also called DR5-IgG; DR5-IgG1

[5] = target: T9, human DR4, full length, on the cell surface (Cos-7 cells transfected with full-length DR4 cDNA); human cell … (human, UniProt O00220 24-468); assay: flow cytometry of transfected Cos-7 cells (Fig. 1c)
T9 construct: whole, on cells; also called cell surface DR4

[6] = target: T5, DR4/hIgG1 (TRAIL-R1) fusion protein; assay: ELISA on plates coated with 2 µg/ml DR4-Ig (Fig. 1b, middle panel)
[7] = target: T1, soluble TNFRI (soluble form of human …); assay: Western blot, 0.5 µg of each protein
[8] = target: T2, TRAIL-R3 (DcR-1)/hIgG1 fusion protein; assay: Western blot, 0.5 µg of each protein
[9] = target: T3, TRAIL-R4 (DcR-2)/hIgG1 fusion protein; assay: Western blot, 0.5 µg of each protein
[10] = target: T4, CD95/hIgG1 (soluble form of human Fas); assay: Western blot, 0.5 µg of each protein

Row | Binder | binding result [1] | Kd [2] [nM] | binding result [3] | Kd [4] [nM] | binding result [5] | binding result [6] | binding result [7] | binding result [8] | binding result [9] | binding result [10]
1 | soluble recombinant human TRAIL (Alexis): extracellular domain of human TRAIL (aa residues 95 to 281) fused at the N-terminus to a FLAG-tag and an 8 amino acid … (ligand, UniProt P50591 95-281, looked up, range 95-281; Bought reagent; also called TRAIL-FLAG; soluble TRAIL; not shown: FLAG tag; 8 amino acid linker peptide) TSEETISTVQEKQQNISPLVRERGPQRVAAHITGTRGRSNTLSSPNSKNEKALGRKINSWESSRSGHSFLSNLHLRNGELVIHEKGFYYIYSQTYFRFQEEIKENTKNDKQMVQYIYKYTSYPDPILLMKSARNSCWSKDAEYGLYSIYQGGIFELKENDRIFVSVTNEHLIDMDHEASFFGAFLVG | binds | – | – | – | – | – | – | – | – | –
2 | TRA-8 monoclonal anti-human DR5 antibody (mouse-mouse hybridoma TRA-8, ATCC PTA-1428) (antibody, mouse IgG1, kappa, V domains shown, also called anti-DR5 antibody (clone: TRA-8)) VH: EVMLVESGGGLVKPGGSLKLSCAASGFTFSSYVMSWVRQTPEKRLEWVATISSGGSYTYYPDSVKGRFTISRDNAKNTLYLQMSSLRSEDTAMYYCARRGDSMITTDYWGQGTTLTVSS VL: DIVMTQSHKFMSTSVGDRVSITCKASQDVGTAVAWYQQKPGQSPKLLIYWASTRHTGVPDRFTGSGSGTDFTLTISNVQSEDLADYFCQQYSSYRTFGGGTKLEIKR | – | 3 | no binding | 3 | no binding | no binding | no binding (tested: 1 µg/ml) | no binding (tested: 1 µg/ml) | no binding (tested: 1 µg/ml) | no binding (tested: 1 µg/ml)
